Data published in patent US20160122432A1 (INSERM INSTITUT NATIONAL DE LA SANTE ET DE LA RECHERCHE …, published 2016).

Biological target: T1, human HER2 receptor (human, UniProt P04626 23-1255)
T1 construct: whole, on cells; Endogenous HER2 on human cancer cell lines; also called Human Epidermal Growth Factor Receptor 2; Neu
Assay: flow cytometry, biotinylated antibody titrated on SK-BR-3 cells, PE-streptavidin, apparent affinity
Excerpt: After a washing step, bound antibodies were detected using PE-labeled streptavidin and analyzed by FACS. The inverse of the fluorescence was plotted as a function of the inverse of antibody concentration.

| Kd [nM] | Binder |
| --- | --- |
| 51.6 | HER2.C7b sdAb (VHH, not shown: small tags and cut ends, biotinylated in vitro (Ez-link micro NHS-PEO4-biotinylation kit) for the affinity determination; sites not stated, also called sdAb HER2.C7b; anti HER2 sdAb HER2.C7b) VHH: QVQLVQSGGGLVQAGGSLRLSCAASGRTFSSYAMAWFRQAPGKEREFVAAISWSGANIYVADSVKGRFTISRDNAKDTVYLQMNSLKPEDTAVYYCAVKLGFAPVEERQYDYWGQGTQVTVSS |
| 2.9 | HER2.C7b-Fc (Fc fusion, biotinylated in vitro for the affinity determination; sites not stated, Bivalent for HER2: two HER2.C7b sdAb fused to the constant part of human IgG1; also called Sdab HER2.C7b-Fc; aHER2.C7b-Fc; not shown: hinge, CH1 and CH2 domains of a human IgG1 (so in the source)) QVQLVQSGGGLVQAGGSLRLSCAASGRTFSSYAMAWFRQAPGKEREFVAAISWSGANIYVADSVKGRFTISRDNAKDTVYLQMNSLKPEDTAVYYCAVKLGFAPVEERQYDYWGQGTQVTVSS |
